B1: N-terminal region of CHIKV-43, 473ITFGDFNDGEIESLSSEL490 (motif 1 and α1) (peptide)
peptide: ITFGDFNDGEIESLSSEL
notes: also called N-terminus (motif 1 and α1) of CHIKV-43
B2: C-terminal region of CHIKV-43, 491LTFGDFLPGEVDDLTDSD508 (motif 2 and α2) (peptide)
peptide: LTFGDFLPGEVDDLTDSD
notes: also called C-terminus (motif 2 and α2) of CHIKV-43

Molecular target: T1, nuclear translocation factor 2-like (NTF2L) domain of human G3BP1 (human, UniProt Q13283-1 1-138)
T1 construct: three extra residues Gly-Ala-Ser left at the N-terminus after TEV cleavage of the 6xHis tag; complete chains (1-138) are C, G, N and R; also called G3BP1-NTF2L domain; source: E. coli BL21 (DE3), purified (Ni-NTA, TEV cleavage, second Ni-NTA, SEC); not shown: His6, N-terminal, cleaved
Assay: ITC; peptide injected into NTF2L in the cell, 20°C, 20 mM HEPES, 150 mM NaCl, pH 7.5
Conditions: both partners purified

T1 sequence (Q13283 other isoform, or with tags, fused parts or gaps): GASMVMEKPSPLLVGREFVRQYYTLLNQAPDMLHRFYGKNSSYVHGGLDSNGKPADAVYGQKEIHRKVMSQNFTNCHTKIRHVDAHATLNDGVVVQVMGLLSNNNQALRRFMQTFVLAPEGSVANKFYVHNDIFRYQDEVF

| Binder | Kd [nM] | fold reduction of binding affinity against CHIKV-43 with NTF2L [fold] | stoichiometry N |
| --- | --- | --- | --- |
| B1 | 3400 ± 700 |  |  |
| ITFGDFNDGEIESLSSELLTFGDFLP [CHIKV-26 peptide (residues Ile473 to Pro498 of CHIKV nsP3, without the α2 region)] |  | ~100 | 1 CHIKV-26 per NTF2L (1:1) |
| B2 | 2200 ± 500 |  |  |

— publication PMC12077208, “Cryo-EM reveals a double oligomeric ring scaffold of the CHIKV nsP3 peptide in complex with the NTF2L domain of host G3BP1” (mBio, 2025)
